Target: recombinant PARP-1 (rPARP-1) (UniProt P09874 1-1014)
Assay: Southwestern blot

Sequence of recombinant PARP-1 (rPARP-1) (P09874 whole entry): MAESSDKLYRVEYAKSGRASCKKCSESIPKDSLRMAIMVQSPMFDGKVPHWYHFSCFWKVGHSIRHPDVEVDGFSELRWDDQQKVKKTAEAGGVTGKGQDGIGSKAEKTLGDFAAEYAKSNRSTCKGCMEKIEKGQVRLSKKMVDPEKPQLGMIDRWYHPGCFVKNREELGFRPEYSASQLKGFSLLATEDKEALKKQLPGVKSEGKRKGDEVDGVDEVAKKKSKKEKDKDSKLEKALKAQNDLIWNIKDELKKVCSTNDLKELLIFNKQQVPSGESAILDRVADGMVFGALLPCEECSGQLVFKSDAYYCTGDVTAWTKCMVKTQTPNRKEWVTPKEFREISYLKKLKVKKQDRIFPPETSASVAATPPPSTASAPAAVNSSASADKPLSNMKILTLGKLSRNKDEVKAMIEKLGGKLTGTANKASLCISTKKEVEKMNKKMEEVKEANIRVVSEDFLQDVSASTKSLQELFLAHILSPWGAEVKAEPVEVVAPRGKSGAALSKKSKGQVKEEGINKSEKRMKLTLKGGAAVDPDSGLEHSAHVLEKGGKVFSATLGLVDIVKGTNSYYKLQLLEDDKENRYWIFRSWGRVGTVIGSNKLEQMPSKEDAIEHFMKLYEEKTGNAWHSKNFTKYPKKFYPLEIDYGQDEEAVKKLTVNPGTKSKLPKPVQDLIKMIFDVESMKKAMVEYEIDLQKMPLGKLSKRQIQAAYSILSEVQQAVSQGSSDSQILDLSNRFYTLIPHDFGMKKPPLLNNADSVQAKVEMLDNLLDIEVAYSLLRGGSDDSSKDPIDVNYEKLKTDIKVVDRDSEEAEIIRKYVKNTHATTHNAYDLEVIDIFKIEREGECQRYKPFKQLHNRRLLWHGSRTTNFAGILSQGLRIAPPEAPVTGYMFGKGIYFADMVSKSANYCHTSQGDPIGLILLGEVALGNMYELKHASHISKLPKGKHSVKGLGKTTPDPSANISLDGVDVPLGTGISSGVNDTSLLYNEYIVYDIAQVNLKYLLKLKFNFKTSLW

Binder: AGGGCGGTGTGGGAAGAGGGAAGAGGGGGAGG (structured_DNA) [32R (KRAS NHE G-quadruplex), radiolabelled]
- binding result: binds

From paper PMC2441797
